Like-named read-outs stand apart in the source and are kept apart here.
Experiments:
[1] = target: T1, RPA heterotrimer (RPA1/RPA2/RPA3) (human, UniProt P27694;P15927;P35244 1-616;1-270;1-121); assay: bulk FRET
RPA-E240K heterotrimer = RPA-E240K heterotrimer (human, UniProt P27694;P15927;P35244 1-616;1-270;1-121, E240K); assay: mass photometry
[2] = target: T1, RPA heterotrimer (RPA1/RPA2/RPA3); assay: mass photometry
hnRNPA1 [3] = target: T2, hnRNPA1 (human, UniProt P09651 1-372); assay: bulk FRET
T2 sequence (P09651 whole entry): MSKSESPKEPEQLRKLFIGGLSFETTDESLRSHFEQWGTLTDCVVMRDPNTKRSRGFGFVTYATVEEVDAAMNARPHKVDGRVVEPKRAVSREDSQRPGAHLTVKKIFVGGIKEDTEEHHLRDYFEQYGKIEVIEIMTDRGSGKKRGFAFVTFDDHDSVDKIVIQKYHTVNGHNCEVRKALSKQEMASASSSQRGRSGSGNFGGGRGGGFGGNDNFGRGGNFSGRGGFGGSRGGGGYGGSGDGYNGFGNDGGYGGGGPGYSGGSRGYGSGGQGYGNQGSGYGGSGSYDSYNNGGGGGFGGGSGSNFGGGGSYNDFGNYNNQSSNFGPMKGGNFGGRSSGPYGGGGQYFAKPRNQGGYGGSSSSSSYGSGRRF

[4] = target: T1, RPA heterotrimer (RPA1/RPA2/RPA3); assay: EMSA
[5] = target: hnRNPA1;RPA heterotrimer (RPA1/RPA2/RPA3) (human;human, UniProt P09651;P27694;P15927;P35244 1-372;1-616;1-270;1-121, |); assay: bulk FRET
hnRNPA1;RPA heterotrimer (RPA1/RPA2/RPA3), sequence (P09651 whole entry, chain 1 of 4): as the sequence (P09651 whole entry) above
hnRNPA1;RPA heterotrimer (RPA1/RPA2/RPA3), sequence (P27694 whole entry, chain 2 of 4): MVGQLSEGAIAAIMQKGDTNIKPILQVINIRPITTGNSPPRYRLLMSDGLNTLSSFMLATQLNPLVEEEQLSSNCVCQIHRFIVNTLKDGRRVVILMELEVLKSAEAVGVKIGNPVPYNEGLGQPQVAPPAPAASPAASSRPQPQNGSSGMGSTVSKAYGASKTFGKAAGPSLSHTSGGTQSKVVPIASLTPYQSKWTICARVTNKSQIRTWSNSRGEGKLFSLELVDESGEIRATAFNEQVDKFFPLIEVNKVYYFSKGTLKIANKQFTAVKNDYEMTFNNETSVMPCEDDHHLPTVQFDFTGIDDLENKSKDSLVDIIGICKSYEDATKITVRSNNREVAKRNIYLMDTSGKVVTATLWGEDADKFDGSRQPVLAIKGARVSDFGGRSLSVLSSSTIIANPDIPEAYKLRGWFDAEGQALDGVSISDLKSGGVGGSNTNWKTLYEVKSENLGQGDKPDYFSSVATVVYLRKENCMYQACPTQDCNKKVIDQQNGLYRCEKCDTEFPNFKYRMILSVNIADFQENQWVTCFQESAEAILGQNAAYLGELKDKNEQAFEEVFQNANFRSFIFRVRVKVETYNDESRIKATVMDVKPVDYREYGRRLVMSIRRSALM
hnRNPA1;RPA heterotrimer (RPA1/RPA2/RPA3), sequence (P15927 whole entry, chain 3 of 4): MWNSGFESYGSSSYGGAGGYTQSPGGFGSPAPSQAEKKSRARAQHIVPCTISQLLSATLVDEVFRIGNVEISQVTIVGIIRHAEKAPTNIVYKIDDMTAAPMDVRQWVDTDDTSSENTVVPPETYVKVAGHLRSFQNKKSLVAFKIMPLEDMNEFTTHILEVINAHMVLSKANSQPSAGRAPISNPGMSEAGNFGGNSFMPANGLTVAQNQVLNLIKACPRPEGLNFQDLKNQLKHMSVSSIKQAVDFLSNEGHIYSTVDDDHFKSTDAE
hnRNPA1;RPA heterotrimer (RPA1/RPA2/RPA3), sequence (P35244 whole entry, chain 4 of 4): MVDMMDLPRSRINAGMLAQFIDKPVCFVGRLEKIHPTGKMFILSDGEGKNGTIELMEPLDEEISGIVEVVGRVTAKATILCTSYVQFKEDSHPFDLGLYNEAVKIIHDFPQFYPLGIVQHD

[6] = target: hnRNPA1;RPA-E240K heterotrimer (human;human, UniProt P09651;P27694;P15927;P35244 1-372;1-616;1-270;1-121, |E240K); assay: bulk FRET
hnRNPA1;RPA-E240K heterotrimer, sequence (P09651 whole entry, chain 1 of 4): as the sequence (P09651 whole entry) above
hnRNPA1;RPA-E240K heterotrimer, sequence (P27694 whole entry E240K, chain 2 of 4): as the sequence (P27694 whole entry, chain 2 of 4) above, with E240K counted along it
hnRNPA1;RPA-E240K heterotrimer, sequence (P15927 whole entry, chain 3 of 4): as the sequence (P15927 whole entry, chain 3 of 4) above
hnRNPA1;RPA-E240K heterotrimer, sequence (P35244 whole entry, chain 4 of 4): as the sequence (P35244 whole entry, chain 4 of 4) above

hnRNPA1 [7] = target: T2, hnRNPA1; assay: bulk FRET; remark: listed apart in the source

T1 sequence (P27694 whole entry, chain 1 of 3): as the sequence (P27694 whole entry, chain 2 of 4) above
T1 sequence (P15927 whole entry, chain 2 of 3): as the sequence (P15927 whole entry, chain 3 of 4) above
T1 sequence (P35244 whole entry, chain 3 of 3): as the sequence (P35244 whole entry, chain 4 of 4) above
RPA-E240K heterotrimer, sequence (P27694 whole entry E240K, chain 1 of 3): as the sequence (P27694 whole entry, chain 2 of 4) above, with E240K counted along it
RPA-E240K heterotrimer, sequence (P15927 whole entry, chain 2 of 3): as the sequence (P15927 whole entry, chain 3 of 4) above
RPA-E240K heterotrimer, sequence (P35244 whole entry, chain 3 of 3): as the sequence (P35244 whole entry, chain 4 of 4) above

**Q.** Does TGGGGAGGGTGGGGAGGGTGGGGAAGG (structured_DNA) [PU27G4] bind [1]?
**A.** binds

**Q.** Does AGGGGCGGGCGCTTTAGGAAAAGGGCGGGT (structured_DNA) [BCL-2G4 1245] bind [1]?
**A.** binds

**Q.** Does TTAGGGTTAGGGTTAGGGTTAGGGTTAGGG (structured_DNA) [h-telG4 (MP)] bind (RPA-E240K heterotrimer)?
**A.** binds

**Q.** Does TTAGGGTTAGGGTTAGGGTTAGGGTTAGGG (structured_DNA) [h-telG4 (MP)] bind [2]?
**A.** binds

**Q.** How did the Kd (hnRNPA1 [3]) turn out when TTAGGGTTAGGGTTA (ssDNA) [h-tel-15(FRET)] was run?
**A.** 73.5 ± 4.3 nM

**Q.** What does the source list for TTAGGGTTAGGGTTAGGGTTAGGGTTAGGG (structured_DNA) [h-telG4 (FRET), five telomeric repeats]?
**A.** binding result [4]: binds; Kd [5]: 27.4 ± 2.7 nM; Kd [6]: 75.9 ± 25.5 nM; Kd (hnRNPA1 [7]): 20.6 ± 3.5 nM

**Q.** Does TTTTTTTTTTTTTTTTTTTTTTTTTTTTTT (ssDNA) [dT30] bind [1]?
**A.** binds

Source: publication PMC11551749
